Experimental data reported in the Human Domainome abundance scans (Beltran et al. 2025).
± gives the uncertainty stated by the source.

B1: Zinc finger homeobox protein 3, residues 2147 to 2202; numbered along this chain, Q15911 (parent)
chain: RPRTRITDDQLRVLRQYFDINNSPSEEQIKEMADKSGLPQKVIKHWFRNTLFKERQ

Variants of: B1
Test: abundance fitness (aPCA) (normalised: wild type 0, dead -1); higher = more abundant; growth selection in yeast, the domain comes from the species named
Details: Homo sapiens
In the case of RPRTRITDDQLRVLRQYFDINNSPSEEQIKEMADYSGLPQKVIKHWFRNTLFKERQ [K35Y], the abundance fitness is reported as -0.357 ± 0.12. Variant RPRTRITDDQLRVLRQYFDINNSPSEEQIKEMADHSGLPQKVIKHWFRNTLFKERQ [K35H] has an abundance fitness of -0.536 ± 0.15. With RPRTRITDDQLRVLRQYFDINNSPSEEQIKEMADGSGLPQKVIKHWFRNTLFKERQ [K35G] the abundance fitness was -0.402 ± 0.084. With RPRTRITDDQLRVLRQYFDINNSPSEEQIKEMADNSGLPQKVIKHWFRNTLFKERQ [K35N] the abundance fitness was -0.138 ± 0.14. With RPRTRITDDQLRVLRQYFDINNSPSEEQIKEMADLSGLPQKVIKHWFRNTLFKERQ [K35L] the abundance fitness was -0.163 ± 0.08. Variant RPRTRITDDQLRVLRQYFDINNSPSEEQIKEMADFSGLPQKVIKHWFRNTLFKERQ [K35F] has an abundance fitness of -0.336 ± 0.14. In the case of RPRTRITDDQLRVLRQYFDINNSPSEEQIKEMADASGLPQKVIKHWFRNTLFKERQ [K35A], the abundance fitness is reported as -0.279 ± 0.097. Variant RPRTRITDDQLRVLRQYFDINNSPSEEQIKEMADCSGLPQKVIKHWFRNTLFKERQ [K35C] has an abundance fitness of -0.382 ± 0.12. RPRTRITDDQLRVLRQYFDINNSPSEEQIKEMADSSGLPQKVIKHWFRNTLFKERQ [K35S] showed an abundance fitness of -0.222 ± 0.08. In the case of RPRTRITDDQLRVLRQYFDINNSPSEEQIKEMADQSGLPQKVIKHWFRNTLFKERQ [K35Q], the abundance fitness is reported as 0.014 ± 0.14. Variant RPRTRITDDQLRVLRQYFDINNSPSEEQIKEMADISGLPQKVIKHWFRNTLFKERQ [K35I] has an abundance fitness of -0.329 ± 0.14. RPRTRITDDQLRVLRQYFDINNSPSEEQIKEMADPSGLPQKVIKHWFRNTLFKERQ [K35P] gave an abundance fitness of -0.998 ± 0.14. RPRTRITDDQLRVLRQYFDINNSPSEEQIKEMADDSGLPQKVIKHWFRNTLFKERQ [K35D] gave an abundance fitness of -0.297 ± 0.13. In the case of RPRTRITDDQLRVLRQYFDINNSPSEEQIKEMADTSGLPQKVIKHWFRNTLFKERQ [K35T], the abundance fitness is reported as -0.189 ± 0.091. With RPRTRITDDQLRVLRQYFDINNSPSEEQIKEMADRSGLPQKVIKHWFRNTLFKERQ [K35R] the abundance fitness was -0.175 ± 0.075. In the case of RPRTRITDDQLRVLRQYFDINNSPSEEQIKIMADKSGLPQKVIKHWFRNTLFKERQ [E31I], the abundance fitness is reported as -0.252 ± 0.17. Variant RPRTRITDDQLRVLRQYFDINNSPSEEQIKHMADKSGLPQKVIKHWFRNTLFKERQ [E31H] has an abundance fitness of -0.168 ± 0.16. In the case of RPRTRITDDQLRVLRQYFDINNSPSEEQIKFMADKSGLPQKVIKHWFRNTLFKERQ [E31F], the abundance fitness is reported as -0.375 ± 0.14. RPRTRITDDQLRVLRQYFDINNSPSEEQIKGMADKSGLPQKVIKHWFRNTLFKERQ [E31G] gave an abundance fitness of -0.316 ± 0.074. Work on RPRTRITDDQLRVLRQYFDINNSPSEEQIKRMADKSGLPQKVIKHWFRNTLFKERQ [E31R] yielded an abundance fitness of -0.282 ± 0.076. For RPRTRITDDQLRVLRQYFDINNSPSEEQIKWMADKSGLPQKVIKHWFRNTLFKERQ [E31W], the abundance fitness was -0.404 ± 0.11. With RPRTRITDDQLRVLRQYFDINNSPSEEQIKYMADKSGLPQKVIKHWFRNTLFKERQ [E31Y] the abundance fitness was -0.448 ± 0.15. In the case of RPRTRITDDQLRVLRQYFDINNSPSEEQIKTMADKSGLPQKVIKHWFRNTLFKERQ [E31T], the abundance fitness is reported as -0.011 ± 0.11. In the case of RPRTRITDDQLRVLRQYFDINNSPSEEQIKNMADKSGLPQKVIKHWFRNTLFKERQ [E31N], the abundance fitness is reported as -0.399 ± 0.17. RPRTRITDDQLRVLRQYFDINNSPSEEQIKLMADKSGLPQKVIKHWFRNTLFKERQ [E31L] gave an abundance fitness of -0.259 ± 0.09. Work on RPRTRITDDQLRVLRQYFDINNSPSEEQIKKMADKSGLPQKVIKHWFRNTLFKERQ [E31K] yielded an abundance fitness of -0.017 ± 0.16. RPRTRITDDQLRVLRQYFDINNSPSEEQIKQMADKSGLPQKVIKHWFRNTLFKERQ [E31Q] showed an abundance fitness of -0.507 ± 0.16. For RPRTRITDDQLRVLRQYFDINNSPSEEQIKMMADKSGLPQKVIKHWFRNTLFKERQ [E31M], the abundance fitness was -0.133 ± 0.16. Variant RPRTRITDDQLRVLRQYFDINNSPSEEQIKSMADKSGLPQKVIKHWFRNTLFKERQ [E31S] has an abundance fitness of -0.196 ± 0.091. With RPRTRITDDQLRVLRQYFDINNSPSEEQIKPMADKSGLPQKVIKHWFRNTLFKERQ [E31P] the abundance fitness was -1.03 ± 0.15. In the case of RPRTRITDDQLRVLRQYFDINNSPSEEQIKVMADKSGLPQKVIKHWFRNTLFKERQ [E31V], the abundance fitness is reported as -0.079 ± 0.083. In the case of RPRTRITDDQLRVLRQYFDINNSPSEEQIKERADKSGLPQKVIKHWFRNTLFKERQ [M32R], the abundance fitness is reported as -1.18 ± 0.089. For RPRTRITDDQLRVLRQYFDINNSPSEEQIKESADKSGLPQKVIKHWFRNTLFKERQ [M32S], the abundance fitness was -0.882 ± 0.12. Work on RPRTRITDDQLRVLRQYFDINNSPSEEQIKEDADKSGLPQKVIKHWFRNTLFKERQ [M32D] yielded an abundance fitness of -0.466 ± 0.19. Work on RPRTRITDDQLRVLRQYFDINNSPSEEQIKEAADKSGLPQKVIKHWFRNTLFKERQ [M32A] yielded an abundance fitness of -0.338 ± 0.097. Work on RPRTRITDDQLRVLRQYFDINNSPSEEQIKEKADKSGLPQKVIKHWFRNTLFKERQ [M32K] yielded an abundance fitness of -1.03 ± 0.16. In the case of RPRTRITDDQLRVLRQYFDINNSPSEEQIKECADKSGLPQKVIKHWFRNTLFKERQ [M32C], the abundance fitness is reported as -0.407 ± 0.12. With RPRTRITDDQLRVLRQYFDINNSPSEEQIKEQADKSGLPQKVIKHWFRNTLFKERQ [M32Q] the abundance fitness was -0.774 ± 0.12. With RPRTRITDDQLRVLRQYFDINNSPSEEQIKENADKSGLPQKVIKHWFRNTLFKERQ [M32N] the abundance fitness was -1.08 ± 0.29. RPRTRITDDQLRVLRQYFDINNSPSEEQIKEVADKSGLPQKVIKHWFRNTLFKERQ [M32V] gave an abundance fitness of -0.164 ± 0.092. Work on RPRTRITDDQLRVLRQYFDINNSPSEEQIKELADKSGLPQKVIKHWFRNTLFKERQ [M32L] yielded an abundance fitness of -0.181 ± 0.083. For RPRTRITDDQLRVLRQYFDINNSPSEEQIKEYADKSGLPQKVIKHWFRNTLFKERQ [M32Y], the abundance fitness was -0.317 ± 0.15. For RPRTRITDDQLRVLRQYFDINNSPSEEQIKEPADKSGLPQKVIKHWFRNTLFKERQ [M32P], the abundance fitness was -1.15 ± 0.2. RPRTRITDDQLRVLRQYFDINNSPSEEQIKEIADKSGLPQKVIKHWFRNTLFKERQ [M32I] gave an abundance fitness of -0.191 ± 0.21. RPRTRITDDQLRVLRQYFDINNSPSEEQIKEFADKSGLPQKVIKHWFRNTLFKERQ [M32F] showed an abundance fitness of -0.383 ± 0.23. RPRTRITDDQLRVLRQYFDINNSPSEEQIKEEADKSGLPQKVIKHWFRNTLFKERQ [M32E] showed an abundance fitness of -0.987 ± 0.13. RPRTRITDDQLRVLRQYFDINNSPSEEQIKETADKSGLPQKVIKHWFRNTLFKERQ [M32T] showed an abundance fitness of -0.584 ± 0.14.
